From the supplement of paper PMC7877785
± gives the uncertainty stated by the source.

Assay: self-splicing fitness, log relative to wild type (ln ratio); higher = more splicing; Tetrahymena group I intron in knt gene, E. coli kanamycin selection, DiMSum; sequences stand for … in CUCUCU…GGAGGGAAAAGUUAUCAGGCAUGCACCUGGUAGCUAGUCUUUAAACCAAUAGAUUGCAUCGGUUUAAAAGGCAAGACCGUCAAAUUGCGGGAAAGGGGUCAACAGCCGUUCAGUACCAAGUCUCAGGGGAAACUUUGAGAUGGCCUUGCAAAGGGUAUGGUAAUAAGCUGACGGACAUGGUCCUAACCACGCAGCCAAGUCCUAAGUCAACAGAUCUUCUGUUGAUAUGGAUGCAGUUCACAGACUAAAUGUCGGUCGGGGAAGAUGUAUUCUUCUCAUAAGAUAUAGUCGGACCUCUCCUUAAUGGGAGCUAGCGGAUGAAGUGAUGCAACACUGGAGCCGCUGGGAACUAAUUUGUAUGCGAAAGUAUAUUGAUUAGUUUUGGAGUACUCGUGGUCG
Method in brief: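 DiMSum derived fitness as the error-weighted combination of fold changes across replicates, kanamycin versus no kanamycin, normalised to wild type. E. coli BL21(DE3) held the library, which randomised all eight P1ex-region intron nucleotides within the knt kanamycin-resistance gene on pET-22b(+). Six replicate transformations grew overnight at 37°C or 30°C on LB agar with or without 25 μg/mL kanamycin, also containing 100 μg/mL carbenicillin, 50 μM IPTG and 0.2% rhamnose, and pooled colonies were amplicon-sequenced on an Illumina HiSeq 2500.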

GAUAAGCAAUAUUACGCCUU
self-splicing fitness (ln) (30 °C): -0.931 ± 0.1 | self-splicing fitness (ln) (37 °C): -0.199 ± 0.14

ACUCAGCAAUAUUACGCUAA
self-splicing fitness (ln) (30 °C): -1.63 ± 0.1 | self-splicing fitness (ln) (37 °C): -0.781 ± 0.1

CACUAGCAAUAUUACGCGAA
self-splicing fitness (ln) (30 °C): -2.72 ± 0.19 | self-splicing fitness (ln) (37 °C): -2.74 ± 0.2

AAGGAGCAAUAUUACGGUCA
self-splicing fitness (ln) (37 °C): -2.26 ± 0.32

GCAAAGCAAUAUUACGGACG
self-splicing fitness (ln) (30 °C): -1.4 ± 0.091 | self-splicing fitness (ln) (37 °C): 0.261 ± 0.14

CCUGAGCAAUAUUACGAUCC
self-splicing fitness (ln) (30 °C): -4.29 ± 0.47 | self-splicing fitness (ln) (37 °C): -2.96 ± 0.48

GGAUAGCAAUAUUACGGCUG
self-splicing fitness (ln) (30 °C): -0.385 ± 0.14 | self-splicing fitness (ln) (37 °C): -0.733 ± 0.18

CCGCAGCAAUAUUACGCCAG
self-splicing fitness (ln) (30 °C): -0.493 ± 0.091 | self-splicing fitness (ln) (37 °C): -0.22 ± 0.14

AUUUAGCAAUAUUACGCGGC
self-splicing fitness (ln) (37 °C): -2.08 ± 0.5

ACUCAGCAAUAUUACGCAGG
self-splicing fitness (ln) (30 °C): -1.99 ± 0.11 | self-splicing fitness (ln) (37 °C): -1.35 ± 0.13

UGUCAGCAAUAUUACGGUUC
self-splicing fitness (ln) (30 °C): -3.07 ± 0.2 | self-splicing fitness (ln) (37 °C): -1.63 ± 0.24

ACCGAGCAAUAUUACGAUUU
self-splicing fitness (ln) (30 °C): -2.41 ± 0.11 | self-splicing fitness (ln) (37 °C): -0.954 ± 0.11

UAGCAGCAAUAUUACGCAAC
self-splicing fitness (ln) (30 °C): -2.32 ± 0.16 | self-splicing fitness (ln) (37 °C): -2.24 ± 0.22

CCAGAGCAAUAUUACGGGCG
self-splicing fitness (ln) (30 °C): -1.5 ± 0.085 | self-splicing fitness (ln) (37 °C): -0.383 ± 0.1

CACAAGCAAUAUUACGAGAC
self-splicing fitness (ln) (30 °C): -3.08 ± 0.17 | self-splicing fitness (ln) (37 °C): -2.51 ± 0.17

AGAUAGCAAUAUUACGCAAA
self-splicing fitness (ln) (30 °C): -2.81 ± 0.23 | self-splicing fitness (ln) (37 °C): -1.75 ± 0.24

CACGAGCAAUAUUACGCGAC
self-splicing fitness (ln) (37 °C): -2.76 ± 0.27

AAUUAGCAAUAUUACGAAAG
self-splicing fitness (ln) (30 °C): -3.12 ± 0.19 | self-splicing fitness (ln) (37 °C): -1.51 ± 0.18

ACGGAGCAAUAUUACGCAAG
self-splicing fitness (ln) (30 °C): -3.14 ± 0.27 | self-splicing fitness (ln) (37 °C): -1.79 ± 0.26

GCGUAGCAAUAUUACGGCUC
self-splicing fitness (ln) (30 °C): 0.371 ± 0.11 | self-splicing fitness (ln) (37 °C): 0.776 ± 0.12

GCUAAGCAAUAUUACGGUAA
self-splicing fitness (ln) (30 °C): -1.65 ± 0.17 | self-splicing fitness (ln) (37 °C): -1.04 ± 0.16

UCGCAGCAAUAUUACGAGGG
self-splicing fitness (ln) (30 °C): -2.72 ± 0.11 | self-splicing fitness (ln) (37 °C): -1.65 ± 0.13

GAUCAGCAAUAUUACGUCGU
self-splicing fitness (ln) (30 °C): -0.403 ± 0.079 | self-splicing fitness (ln) (37 °C): -0.669 ± 0.1

UCGGAGCAAUAUUACGAGGG
self-splicing fitness (ln) (30 °C): -3.58 ± 0.21 | self-splicing fitness (ln) (37 °C): -2.94 ± 0.44

UCCGAGCAAUAUUACGAUUC
self-splicing fitness (ln) (30 °C): -2.88 ± 0.43 | self-splicing fitness (ln) (37 °C): -2.79 ± 0.48

UGUCAGCAAUAUUACGUUGA
self-splicing fitness (ln) (30 °C): -3.77 ± 0.23 | self-splicing fitness (ln) (37 °C): -2.47 ± 0.19

UGCGAGCAAUAUUACGCUUG
self-splicing fitness (ln) (30 °C): -3.11 ± 0.37 | self-splicing fitness (ln) (37 °C): -2.05 ± 0.3

CAAUAGCAAUAUUACGCAAC
self-splicing fitness (ln) (30 °C): -3.75 ± 0.34 | self-splicing fitness (ln) (37 °C): -1.91 ± 0.39

CCCGAGCAAUAUUACGGAGG
self-splicing fitness (ln) (30 °C): -3.84 ± 0.21 | self-splicing fitness (ln) (37 °C): -2.57 ± 0.19

GAUAAGCAAUAUUACGCAUG
self-splicing fitness (ln) (30 °C): -1.21 ± 0.084 | self-splicing fitness (ln) (37 °C): -0.777 ± 0.11

GUGAAGCAAUAUUACGUCAG
self-splicing fitness (ln) (30 °C): -0.462 ± 0.076 | self-splicing fitness (ln) (37 °C): -0.996 ± 0.08

CUUUAGCAAUAUUACGUUGC
self-splicing fitness (ln) (30 °C): -3.08 ± 0.28 | self-splicing fitness (ln) (37 °C): -3.55 ± 0.39

AUAAAGCAAUAUUACGCGUC
self-splicing fitness (ln) (30 °C): -4.6 ± 0.46 | self-splicing fitness (ln) (37 °C): -2.73 ± 0.29

UCUCAGCAAUAUUACGUAAC
self-splicing fitness (ln) (30 °C): -2.74 ± 0.21 | self-splicing fitness (ln) (37 °C): -2.2 ± 0.28

CGGAAGCAAUAUUACGCCUU
self-splicing fitness (ln) (30 °C): -3.2 ± 0.17 | self-splicing fitness (ln) (37 °C): -3.48 ± 0.3

CUCAAGCAAUAUUACGUAUC
self-splicing fitness (ln) (30 °C): -2.94 ± 0.14 | self-splicing fitness (ln) (37 °C): -1.79 ± 0.14

GACUAGCAAUAUUACGCGUG
self-splicing fitness (ln) (30 °C): -1.44 ± 0.061 | self-splicing fitness (ln) (37 °C): -0.609 ± 0.067

ACAAAGCAAUAUUACGCGCC
self-splicing fitness (ln) (30 °C): -0.241 ± 0.083 | self-splicing fitness (ln) (37 °C): -0.055 ± 0.1

AGCAAGCAAUAUUACGAGUG
self-splicing fitness (ln) (30 °C): -1.15 ± 0.051 | self-splicing fitness (ln) (37 °C): -0.683 ± 0.06

GACAAGCAAUAUUACGUUCG
self-splicing fitness (ln) (30 °C): -2.99 ± 0.19 | self-splicing fitness (ln) (37 °C): -1.61 ± 0.12

UUAAAGCAAUAUUACGGCCG
self-splicing fitness (ln) (30 °C): 0.199 ± 0.14 | self-splicing fitness (ln) (37 °C): 0.0811 ± 0.16

GCUGAGCAAUAUUACGAGGG
self-splicing fitness (ln) (30 °C): -2.71 ± 0.16 | self-splicing fitness (ln) (37 °C): -2.45 ± 0.31

UAUUAGCAAUAUUACGUAGA
self-splicing fitness (ln) (30 °C): -2.62 ± 0.19 | self-splicing fitness (ln) (37 °C): -1.38 ± 0.19
